The target of the test is SARS-COV-2 Spike protein receptor binding domain (amino acids Arg319-Phe541) expressed with the Fc p (SARS-CoV-2).

Residue numbers refer to the chain shown, from its start. Where “and” joins values, the source holds several entries; their conditions need not be identical. Equal values may be shown once.

B1: mAb10939 (antibody, V domains shown)
VH: EVQLVESGGGLVQPGGSLRLSCAASGLTVSSNYMNWVRQVPGKGLEWVSVIYSGGSKFYVDSVKGRFTISRHNSKNTLYLQMNSLRPEDTAVYYCTRDAQYYGMDVWGQGTTVTVSS
VL: DIQMTQSPSSLSASVGDRVTITCRASQSISTYLHWYQQKPGEAPKLLIYAASSLQSGVPSRFSGSGSGTDFTLTISSLQPEDFATYYCQQSYSTPPEIFGQGTKLEIKR
Broadly, the IC50 is the concentration at which inhibition is half-maximal. A low value points to higher potency. As to B1, the IC50 is 175 pM and 263 pM.

B2: mAb10966 (antibody, V domains shown)
VH: EVQLVESGGGLVQPGGSLRLSCAASGLTVSSNYMSWVRQAPGKGLEWVSVIYSGGSTFYADSVKGRFTISRDNSKNTLYLQMNSLRPEDTAVYYCAREGRIAATGYGMDVWGQGTTVTVSS
VL: not shown
In turn, B2 displayed an IC50 of 160 pM.

B3: mAb10971 (antibody, V domains shown)
VH: EVQLVESGGGLIQPGGSLRLSCAASGVTVSSNYMSWVRQAPGKGLEWVSVIYSGGSTFYSDSVKGRFSISRDNSKNTLYLQMNSLRAEDTAVYYCARDLYYYGMDVWGQGTTVTVSS
VL: DIQLTQSPSFLSASVGDRVTITCRASQGISTYLAWYQQKPGKAPKLLIYAASTLQSGVPSRFSGSGSGTEFTLTISSLQPEDFATYYCQQLDSYPGLTFGGGTKVEIKR
Regarding B3, the IC50 was determined as 149 pM.

B4: mAb10915 (antibody, V domains shown)
VH: EVQLVESGGGLVQPGGSLRLSCAASGFTVSSNYMNWVRQAPGKGLEWVSVIYSGGSTFYADSVKGRFTISRHNSKNTLYLQMNSLRPEDTAVYYCARDLGGYFDYWGQGTLVTVSS
VL: not shown
In the case of B4, the IC50 was found to be 321 pM.

B5: mAb10920 (antibody, V domains shown)
VH: QVQLVESGGGVVQPGRSLRLSCAASGFTFSYYGMHWVRQAPGKGLEWVAVIWYDGSNKFYADSVKGRFTISRDNSKNTLYLQMNSLRAEDTAVYYCAAARPGYYYGMDVWGQGTTVTVSS
VL: DIQMTQSPSSLSASVGDRVTITCRASQGISNYLAWFQQKPGKAPNSLIYAASSLQRGVPSKFSGSGSGTDFTLTISSLQPEDFATYYCQQYNSYPRTFGQGTKVEIKR
Turning to B5, the half-maximal inhibitory concentration (IC50) is 338 pM and 139 pM.

B6: mAb10923 (antibody, V domains shown)
VH: QVQLVQSGAEVKKPGASVKVSCKASGYTFINYYIHWVRQAPGQGLEWMGWINPNSGGTNYAQKFQGRVTMTRDTSISTAYMELSRLRSDDTAVYYCAIITIFGVVTWFDPWGQGTLVTVSS
VL: not shown
On to B6, for which the IC50 is 149 pM and 184 pM.

B7: mAb10934 (antibody, V domains shown)
VH: not shown
VL: DIQMTQSPSSLSASVGDRVTITCQASQDIWNYINWYQQKPGKAPKLLIYDASNLKTGVPSRFSGSGSGTDFTFTISSLQPEDIATYYCQQHDDLPPTFGQGTKVEIKR
In the case of B7, the IC50 is 66 pM and 59.7 pM.

B8: mAb10935 (antibody, V domains shown)
VH: EVQLVESGGGLVQPGGSLRLSCAASGFTVSSNYMSWVRQAPGKGLEWVSLIYSGGSTYYADSVKGRFTISRHNSKNTLYLQMNSLRSEDTAVYYCARVPLGDYYYGMDVWGQGTTVTVSS
VL: B7 VL with W30N, N31K, I33L, K55E, H91S, D93N, P96L, Q100G
For the molecule B8, the IC50 was 102 pM and 69.4 pM.

B9: mAb10938 (antibody, V domains shown)
VH: EVQLVESGGGLVQPGGSLRLSCAVSGFTVSSNYMSWVRQAPGKGLEWVSLIYSGGSTFYADSVKGRFTISRHNSKNTLYLQMNSLRAEDTAVYYCAREGGYSYDYNYWGQGTLVTVSS
VL: B7 VL with W30R, I33L, K55E, S65I, H91Y, D93N, P96I, K103R, V104L
For the molecule B9, the IC50 was determined as 275 pM.

B10: mAb10954 (antibody, V domains shown)
VH: EVQLVESGGGLVQPGGSLRLSCAASGITVSSNYMSWVRQAPGKGLEWVSLIYSGGSTYYADSVKGRFTISRDNSKNTLYLQMNSLRVEDTAVYYCARDHGMAAAGYNYWGQGTLVTVSS
VL: B7 VL with W30N, N31K, I33L, K55E, S76N, I83F, Y87F, H91Y, D93N, T97A
In turn, B10 registered an IC50 of 71.1 pM.

B11: mAb10967 (antibody, V domains shown)
VH: EVQLVESGGGLVQPGGSLRLSCAASGFTVSSNYMSWVRQAPGKGLEWVSVIYPGGSTFYADSVKGRFTISRDNSKNTLYLQMNSLRAEDTAVYYCARDQRDFAWGQGTLVTVSS
VL: B7 VL with W30S, I33L, K55E, S77G, H91Y, D93N, K103R, V104L
Regarding B11, the IC50 is 280 pM.

B12: mAb10955 (antibody, V domains shown)
VH: EVQLVESGGGLVQPGGSLRVSCAASGFTVSRNYMSWVRQAPGKGLEWVSVIYSGGSTFYADSVKGRFTISRDNSKNTLYLQMNSLRAEDTAIYYCARYIPRFDPWGQGTLVTVSS
VL: B7 VL with W30S, I33L, Y36F, K42R, K55E, H91Y, D93N, P96I, K103R, V104L
With B12, the IC50 came to 141 pM.

B13: mAb10937 (antibody, V domains shown)
VH: QITLKESGPTLVKPTQTLTLTCTFSGFSLSTNVVGVGWIRQPPGKALEWLALIYWNDDKRYSPSLKSRLTITKDTSKNQVVLTMTNMDPVDTATYYCAHGPTGDYFDYWGQGTLVTVSS
VL: not shown
Take B13: the IC50 is 64.9 pM.

B14: mAb10930 (antibody, V domains shown)
VH: EVQLVESGGGLVQPGRSLRLSCAASGFTFDDYAMYWVRQAPGKGLEWVSGISWNSGSIGYADSVKGRFTISRDNAKNSLYLQMNSLRAADTALYYCAKDKDWNSRGYYYYGMDVWGQGTTVTVSS
VL: not shown
B14 had an IC50 of 282 pM.

B15: mAb10932 (antibody, V domains shown)
VH: EVQLVESGGGLVQSGGSLRLSCAASGLTVSSNYMSWVRQAPGKGLEWVSVIYSGGSTFYSDSVKGRFTISRHNSKNTLYLQMNSLRAEDTAVYYCARARGDAFDIWGQGTMVTVSS
VL: not shown
The molecule B15 yielded a 50% inhibitory concentration (IC50) of 373 pM.

B16: mAb10982 (antibody, V domains shown)
VH: EVQLVESGGGLVQPGGSLRLSCAASGLTVSSNYMSWVRQAPGKGLEWVSVIYSGGTTYYADSVKGRFTISRHNSKNTLSLQMNSLRAEDTAVYYCARGEGANYYGMDVWGQGTTVTVSS
VL: QSVLTQPPSVSGAPGQRVTISCTGSSSNIGTGYDVHWYQQLPGTAPKLLIYGNSNRPSGVPDRFSGSKSGTSASLAITGLQAEDEADYYCQSYDSSLSGYVVFGGGTKLTVLG
With B16, the half-inhibitory concentration (IC50) stood at 116 pM.

B17: mAb10921 (antibody, V domains shown)
VH: EVQLVESGGGLVQPGGSLRLSCAASGITVSSNYMSWVRQAPGKGLEWVSVIYSGGSTFYADSVKGRFTISRHNSKNTLYLQMNSLRAEDTAVYYCARERNFDAFDIWGQGTMVTVSS
VL: DIQMTQSPSSVSASVGDRVTITCRASQGISSWLAWYQQKPGKAPKLLIYAASSLQSGVPSRFSGSGSGTDFTLTISSLQPEDFATYYCQQANSFPLFTFGPGTKVDIKR
For B17, the IC50 was 433 pM and 507 pM.

B18: mAb10965 (antibody, V domains shown)
VH: EVQLVESGGGLIQPGGSLRLSCAASVFTVSYNYMSWVRQAPGKGLEWVSVIYSGGSTYYADSVKGRFTISRDNSKNTLYLQMNSLRAEDTAVYYCARALPGWGGSFEYFDYWGQGTLVTVSS
VL: not shown
Regarding B18, the IC50 was 213 pM.

B19: mAb10914 (antibody, V domains shown)
VH: EVQLVESGGGLVQPGGSLRLSCAASGLIVSRNYMIWVRQAPGKGLEWVSVIYSGGSTFYADSVKGRFTISRHNSKNTLYLQMNSLRAEDTAVYYCARDLGTGGMDVWGQGTTVTVSS
VL: DIQLTQSPSFLSASVGDRVTITCWASQGISSYLAWYQQKPGKAPKLLIYAASTLQSGVPSRFSGSGSGTEFTLTISSLQPEDFATYYCQQLNSYPLTFGGGTKVEIKR
The molecule B19 showed an IC50 of 980 pM.

B20: mAb10957 (antibody, V domains shown)
VH: B3 VH with I12V, S60A, S68T, Y79F, A87I, Y100G, Y101P
VL: B3 VL with T31S, E70Q, T72I, D92N, L97F, G101P, E106D
B20 came in with an IC50 of 169 pM.

B21: mAb10956 (antibody, V domains shown)
VH: B3 VH with I12V, V27L, S60A, S68T, Y100I, Y101K
VL: not shown
B21 gave an IC50 of 185 pM.

B22: mAb10913 (antibody, V domains shown)
VH: EVQLVESGGGLVQPGGSLRLSCAASGFTFRNYEMNWVRQAPGKGLEWVSYITSSGSTMYYADSVKGRFTISRDNAKNSLYLQMNSLRAEDTAVYYCARDGFYYYYAMDVWGQGTTVTVSS
VL: QSVLTQPPSVSAAPGQKVTISCSGSSSNIGNNYVSWYQQLPGTAPKLLIYDNNKRPSGIPDRFSGSKSGTSATLGITGLQTGDEADYYCGTWDSSLSVGRVFGTGTKVTVLG
In the case of B22, the concentration for half-maximal inhibition (IC50) came out at 217 pM.

B23: mAb10984 (antibody, V domains shown)
VH: EVQLVESGGGLVQPGGSLRLSCAASGLTVNRNYMSWVRQAPGKGLEWVSLIYSGGSTYYADSVKGRFTISRDNSKNTLYLQMNSLRLEDTAVYYCARGELGIPYGMDVWGQGTTVTVSS
VL: QSVLTQPPSVSAAPGQKVTISCSGSSSNIGNNYVSWYQQLPGTAPKLLIYDNNKRPSGIPDRFSGSKSGTSATLGITGLQTGDEADYYCGTWDSSLSAGVFGGGTKLTVLG
Turning to B23, the concentration for half-maximal inhibition (IC50) stood at 77.5 pM.

B24: mAb10964 (antibody, V domains shown)
VH: QVQLQESGPGLVKPSETLSLTCTVSGGSINNYYWIWIRQPPGKGLEWIGYIYHSGSTNYNPSLKSRVTISVDTSKNQFSLKVSSVTAADTAVYYCANMVRGVYEDDYWGQGTLVTVSS
VL: DIQMTQSPSSLSASVGDRVTITCRASQSISNYLNWYQQKPGKAPKLLIFAASSLRSGVPSRFSGSGSGTDFTLTISSLHPEDFATYYCQQNYNTPLTFGPGTKVDIKR
As for B24, the IC50 is 68.3 pM and 62.5 pM.

B25: mAb10936 (antibody, V domains shown)
VH: QVQLVESGGGVVQPGRSLRLSCAASGFTFRNYGMHWVRQAPGKGLEWVSVIWYDGSNRYYADSVKGRFTISRDTSKNTLYLQMNSLRAEDTAVYYCARDPPITGTTGGDAFDIWGQGTMVTVSS
VL: not shown
With B25, the IC50 is 87.5 pM and 71 pM.

(Values after US20260234738A1 (Regeneron, published 2026).)
